From article PMC13140691

Target: GST-LcGLO1 (litchi)

In the case of His-PlAvh133 (natural protein), the enzymatic activity of His-LcGLO1 in vitro (glycolate oxidase assay, H2O2 read at 520 nm, 30°C) with His-PlAvh133 added is reported as 40 % inhibition.
